This test has as its system E. coli BL21 (DE3). Nature of the test: Cell-toxicity assay, spot growth on LB agar. It is filed as cell-based, Escherichia coli. The following applies: E. coli BL21 (DE3), 0.045 mM IPTG, 24 h. The procedure: Cell-toxicity assay was carried as previously described with minor modification (Jiang et al., [2016]). […] A 2 μl bacterial dilution was spotted onto LB agar plate containing 0.045 mM IPTG. Images were taken after 24 h growth.
(A) Diagrams of TplE, TplE-TplEi and “L” peptide expressing constructs. Expression of vector sequence and “L” peptide mutant with the PelB signal peptide was used as a control. […] A 10-fold serial dilution of overnight culture was spotted on LB agar plates from left to right. The experiments were performed at least 3 times.

B1: TplE: H2-T6SS-dependent antibacterial lipolytic toxin (lipase effector) of P. aeruginosa (protein)
chain: MSSEPLEPNQDVIIPRSRDSLGRPVYKAQLTRTDNQSEKVALIRQTAPLPVIFIPGIMGTNLRNKADKSEVWRPPNGLWPMDDLFASIGALWTWAWRGPKARQELLKAEQVEVDDQGTIDVGQSGLSEEAARLRGWGKVMRSAYNPVMGLMERRLDNIVSRRELQAWWNDEALSPPGDQGEEQGKVGPIDEEELLRASRYQFDVWCAGYNWLQSNRQSALDVRDYIENTVLPFYQKECGLDPEQMRRMKVILVTHSMGGLVARALTQLHGYERVLGVVHGVQPATGSSTIYHHMRCGYEGIAQVVLGRNAGEVTAIVANSAGALELAPSAEYREGRPWLFLCDAQGQVLKDIDGKPRAYPQNQDPYEEIYKNTTWYGLVPEQNSQYLDMSDKKEGLRVGPRDNFEDLIDSIANFHGELSAAGYHSETYAHYGADDSRHSWRDLIWKGDPTPLETPGATLNDDENGTYNSWFRRGLPTIVQGPLETGNPLDASGSGGDETVPTDSGQAPALAGVKASFRHGSKGKGQANTKRGYEHQESYNDARAQWAALYGVIKITQLADWHPNDKGGT
With B1, the “growth of E. coli on periplasmic expression of TplE” value (periplasmic-targeted TplE alone) is “significant inhibition of growth”.

B2: TplEi: cognate periplasmic immunity protein that neutralizes TplE (protein)
chain: CTSFSSSRSSSMDKTGWITHCFGRFLIDLPPDAVINAGYYLWGDRIEYLDDKPTELAARVDRLEQEWRTQRHKSKGNMFLRKIDFGNESVGLLSWSSEVASKTYLLDTYVTSKPTWHVYRWKGKVSVDREQHAVEISRALARNLRSRAPKEIPSEPGFCIDHAYIAGDSFQVERFGVGVTFPEHPGARFEFRSSTGAELNSLLERVDGFVQNMLSTFAGMETLRKGKHPVGSLPGEEYLVAGSDKGQRGYTFMWEVQGKEESLTEPNLTAGLAVLERSNENGKPPPPAFKSDKEALELWDTIVDSIRVRPTSSSPRGGNAGPSPAPKPATPGGQTLGDHYVYEEFLSSLKPKDSWLDDL
For the molecule B2, the “effect of co-expression of TplEi on TplE-dependent growth inhibition” value (TplE-TplEi co-expressed) is reported as “repressed the TplE-dependent growth inhibition”.

Source of the values: PMC5611513, “Structure-Based Prototype Peptides Targeting the Pseudomonas aeruginosa Type VI Secretion System Effector as a Novel Antibacterial Strategy” (Frontiers in Cellular and Infection Microbiology, 2017).
